In US8609413B2, “Neurons, astrocytes and oligodendrocytes differentiated from a mammalian pluripotent or neural stem cells exposed to a pyridine deriviative” (Research Development Foundation, priority 2007, dated 2013):

Test system: human ESC-derived NPC / ESC aggregates
Assay: Air/liquid interface three-dimensional culture with added factors
Assay type: cell-based
Details: exogenously added factor
Text: Air/liquid interface expansion/differentiation of NPC may be performed via the following protocol. One or more rosettes-enriched clusters may be manually removed and multiple clusters (e.g., about 5-10 clusters) may be plated on a hydrophilic polytetrafluoroethylene (PTFE) membrane (e.g., 6 mm diameter, 0.4 μm, BioCell-Interface, La Chaux-de-Fonds, Switzerland). This membrane may be deposited on a Millicell®-CM (0.4 μm) Culture Plate Insert (Millipore) (FIG. 5A). N2 medium may preferably be added (e.g., about 1 ml) underneath the membrane insert.
Air/liquid interface expansion/differentiation of NPC. Rosettes-enriched cluster were manually removed and 5-10 clusters were plated on a hydrophilic polytetrafluoroethylene (PTFE) membrane (6 mm diameter, 0.4 μm, BioCell-Interface, La Chaux-de-Fonds, Switzerland). This membrane was deposited on a Millicell®-CM (0.4 μm) Culture Plate Insert (Millipore) (FIG. 1). One ml of N2 medium was added underneath the membrane insert.

B1: Noggin: a polypeptide playing a key role in neural induction (protein, UniProt Q13253 28-232, looked up)
Noggin: QHYLHIRPAPSDNLPLVDLIEHPDPIFDPKEKDLNETLLRSLLGGHYDPGFMATSPPEDRPGGGGGAAGGAEDLAELDQLLRQRPSGAMPSEIKGLEFSEGLAQGKKQRLSKKLRRKLQMWLWSQTFCPVLYAWNDLGSRFWPRYVKVGSCFSKRSCSVPEGMVCKPSKSVHLTVLRWRCQRRGGQRCGWIPIQYPIISECKCSC
phenotype of engineered tissue: had no influence on the self-organization and phenotype
